Non-standard residues stand in square brackets, D forms with d. pS = N[C@@H](COP(=O)(O)O)C(=O)O
Key:
[1] = target: fluorescent BACH1-derived peptide (Fluorescein-GGSRSTpSPTFNK-NH2); test: fluorescence polarisation
[2] = target: wild-type BRCA1 BRCT domain (human, UniProt P38398); test: fluorescence polarisation

Molecule	Kd [1] [nM]	Kd [2] [nM]
BRCA1 BRCT domain R1699W variant (from UniProt P38398) (domain or fragment)	> 200000	–
Fluorescein-GGSRST[pS]PTFNK-NH2 [fluorescent BACH1-derived peptide (Fluorescein-GGSRSTpSPTFNK-NH2)]	–	1200 ± 100

— article PMC3100782 (Biochemistry, 2011)
